# B1: E3 ubiquitin ligase TRAF3IP2 (Homo sapiens), O43734-2 (parent)
# chain: MNRSIPVEVDESEPYPSQLLKPIPEYSPEEESEPPAPNIRNMAPNSLSAPTMLHNSSGDFSQAHSTLKLANHQRPVSRQVTCLRTQVLEDSEDSFCRRHPGLGKAFPSGCSAVSEPASESVVGALPAEHQFSFMEKRNQWLVSQLSAASPDTGHDSDKSDQSLPNASADSLGGSQEMVQRPQPHRNRAGLDLPTIDTGYDSQPQDVLGIRQLERPLPLTSVCYPQDLPRPLRSREFPQFEPQRYPACAQMLPPNLSPHAPWNYHYHCPGSPDHQVPYGHDYPRAAYQQVIQPALPGQPLPGASVRGLHPVQKVILNYPSPWDHEERPAQRDCSFPGLPRHQDQPHHQPPNRAGAPGESLECPAELRPQVPQPPSPAAVPRPPSNPPARGTLKTSNLPEELRKVFITYSMDTAMEVVKFVNFLLVNGFQTAIDIFEDRIRGIDIIKWMERYLRDKTVMIIVAISPKYKQDVEGAESQLDEDEHGLHTKYIHRMMQIEFIKQGSMNFRFIPVLFPNAKKEHVPTWLQNTHVYSWPKNKKNILLRLLREEEYVAPPRGPLPTLQVVPL
# partner: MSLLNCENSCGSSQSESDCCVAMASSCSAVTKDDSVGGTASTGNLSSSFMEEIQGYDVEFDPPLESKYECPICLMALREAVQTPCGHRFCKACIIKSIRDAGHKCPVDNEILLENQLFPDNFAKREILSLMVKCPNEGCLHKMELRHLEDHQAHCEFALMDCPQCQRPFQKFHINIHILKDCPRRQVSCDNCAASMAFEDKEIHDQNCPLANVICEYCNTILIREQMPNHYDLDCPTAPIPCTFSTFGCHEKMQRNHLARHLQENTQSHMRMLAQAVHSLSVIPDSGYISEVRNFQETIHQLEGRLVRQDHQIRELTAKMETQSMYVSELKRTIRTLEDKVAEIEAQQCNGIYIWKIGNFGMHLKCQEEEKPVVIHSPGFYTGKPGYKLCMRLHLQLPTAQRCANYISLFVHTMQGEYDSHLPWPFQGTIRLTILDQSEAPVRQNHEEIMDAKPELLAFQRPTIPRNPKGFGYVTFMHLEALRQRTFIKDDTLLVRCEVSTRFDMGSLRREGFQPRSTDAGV
# Variants of: B1
# Conditions: with traf6_human TRAF6, Q9Y4K3
row,effect of a mutation on the interaction,Variant
1,disrupting interaction,D10N

# From IntAct's records for PubMed 20953186
